Experimental data: patent US20210309739A1 (CISCIO BIOASSAYS, published 2021)
Where two headings read alike, the source gives them in different places.

Experiments:
[1] = target: T1, recombinant TST-Galphai1 protein bound to GTPgammaS (human, UniProt P63096 1-354, Loaded non-covalently with GTPgammaS (10 uM). The N-terminal TwinStreptag and TEV linker are not in the letters.); assay: TR-FRET (HTRF) saturation binding; 6HIS-tagged VH-HcAb titrated on 1 nM TST-Galphai1 with 10 uM GTPgS, anti-TST-Lumi4-Tb donor and anti-6HIS-d2 acceptor; mean Kd
T1 construct: Same polypeptide as m15 and m16; here loaded with an excess of GTPgS (10 uM); Produced in Sf9 insect cells; also called Galphai1 protein loaded with GTPgS
T1 sequence (P63096 whole entry): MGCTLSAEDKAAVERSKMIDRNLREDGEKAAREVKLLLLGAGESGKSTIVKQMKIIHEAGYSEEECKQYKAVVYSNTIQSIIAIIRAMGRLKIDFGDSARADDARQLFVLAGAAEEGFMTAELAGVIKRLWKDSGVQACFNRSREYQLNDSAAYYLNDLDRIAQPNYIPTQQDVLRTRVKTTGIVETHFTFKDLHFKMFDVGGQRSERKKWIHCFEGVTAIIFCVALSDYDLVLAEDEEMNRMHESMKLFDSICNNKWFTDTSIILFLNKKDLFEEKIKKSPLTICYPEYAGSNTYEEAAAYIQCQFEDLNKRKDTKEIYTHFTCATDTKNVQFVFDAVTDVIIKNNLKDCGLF
Protocol: (§1) FIG. 12 illustrates the principle of the TR-FRET (HTRF) assay which was carried out to determine the affinity (Kd) of the various VH-HcAbs for the Galphai1 protein. A fixed concentration (1 nM) of the recombinant Galphai1 protein purified and tagged with TST (TST-Galphai1 protein) is placed in the presence of an excess of nucleotide (GDP or GTPgS) (10 μM), of a fixed concentration (0.5 nM) of anti-TST antibody labeled with the donor Lumi4®-Tb (anti-Tag Ab-Donor), of a fixed concentration (50 nM) of anti-6HIS antibody labeled with the acceptor d2 (anti-6HIS-acceptor antibody, Cisbio Bioassays #61HISDLF), and of increasing concentrations of a VH-HcAb antibody tagged with 6HIS (6HIS-Fc-sdAb). The total HTRF signal was then obtained.
(§2) The specific HTRF signal of the interaction between the VH-HcAb and the Galphai1 protein was then calculated by subtracting the nonspecific signal from the total signal. The data of the specific HTRF signal were then analyzed on GraphPad Prism7 software using a “one site specific binding” fit. The dissociation constant (Kd) of the VH-HcAb for the Galphai1 protein was then determined.

[2] = target: T2, empty G alphai1 protein (recombinant TST-Galphai1 protein, no nucleotide) (human, UniProt P63096 1-354); assay: TR-FRET (HTRF) saturation binding; VH-d2 titrated on TST-Galphai1, empty form; mean Kd
T2 construct: Same polypeptide as m14 and m15; also called empty G protein alpha; empty form of the G protein alpha; not shown: N-terminal TwinStreptag (TST) (IBA) tag and TEV linker
T2 sequence (P63096 whole entry): as above

[3] = target: T3, recombinant TST-Galphai1 protein bound to GDP (human, UniProt P63096 1-354, Loaded non-covalently with GDP (10 uM). The N-terminal TwinStreptag and TEV linker are not in the letters.); assay: TR-FRET (HTRF) saturation binding; VH-d2 titrated on 1 nM TST-Galphai1 with 10 uM GDP, anti-TST-Lumi4-Tb donor; mean Kd
T3 construct: Same polypeptide as m14 and m16; here loaded with an excess of GDP (10 uM); Produced in Sf9 insect cells; also called Galphai1 protein loaded with GDP
T3 sequence (P63096 whole entry): as above
Protocol: (§3) The TR-FRET (HTRF) test made it possible to determine the affinity (Kd) of the various antibodies for the Galphai1 protein; FIG. 2 illustrates the principle of this test. A fixed concentration (1 nM) of the recombinant Galphai1 protein purified and tagged with TST (TST-Galphai1 protein) was placed in the presence of an excess of nucleotide (GDP or GTPgS) (10 μM), of a fixed concentration (0.5 nM) of anti-TST antibody labeled with the donor Lumi4®-Tb (anti-TST antibody-Lumi4®-Tb) and of increasing concentrations of VH-type single-domain antibodies labeled with the acceptor d2 (anti-Galphai VH antibody-d2). The total HTRF signal was then obtained.
(§4) The specific HTRF signal of the interaction between the antibody and the Galphai1 protein was then calculated by subtracting the nonspecific signal from the total signal. The data of the specific HTRF signal were then analyzed on GraphPad Prism7 software using a “one site specific binding” fit. The dissociation constant (Kd) of the antibody for the Galphai1 protein was then determined. The results which were obtained with the antibodies which bind to the G protein alpha bound to GTP gamma S and with the antibodies which bind to the G protein alpha bound to GDP are shown in Tables 1 and 2 below.

[4] = target: T3, recombinant TST-Galphai1 protein bound …; assay: TR-FRET (HTRF) saturation binding; 6HIS-tagged VH-HcAb titrated on 1 nM TST-Galphai1 with 10 uM GDP, anti-TST-Lumi4-Tb donor and anti-6HIS-d2 acceptor; mean Kd
Protocol: as §1, §2

[5] = target: T1, recombinant TST-Galphai1 protein bound …; assay: TR-FRET (HTRF) saturation binding; VH-d2 titrated on 1 nM TST-Galphai1 with 10 uM GTPgS, anti-TST-Lumi4-Tb donor; mean Kd
Protocol: as §3, §4

[6] = target: T2, empty G alphai1 protein (recombinant …); assay: TR-FRET (HTRF) saturation binding; VH-d2 titrated on TST-Galphai1, empty form; mean Kd; remark: listed apart in the source

Row | Binder | Kd [2] [nM] | Kd [3] [nM] | Kd [5] [nM] | also measured
1 | HcAb-F9 (Fc fusion, also called VH-HcAb F9; 6HIS-Fc-sdAb; not shown: CH2 and CH3 domains of a human IgG1) heavy (part 1 of 2): EVQLVESGGGLVQPGGSLRLSCAASGFTFDDYAMNWVRQAAGKGPEWVASISSRGITTDYAHSVKGRFTVSRDNTKNTLYLQMNSLKPDDAAVYYCATDPSTWYRGTAHWGQGTQVTVSSAAAEQKLISEEDLNGAAHHHHHHGS heavy (part 2 of 2): HHHHHH | – | – | – | Kd [1]: 3 nM
2 | VH E2 (VHH, labeled with the acceptor fluorescent probe d2 (site not stated), Made in E. coli; also called anti-Galphai VH antibody-d2) VHH: EVQLVESGGGLVQPGGSLRLSCIGSGYTFSSYAMAWVRQASGKGPEWVASISSRGITTDYAHSVKGRFTISRDNAKNTLYLHMNNLKPEDTALYYCTRVLWYENGLYSLNDFWGQGTQVTVSS | 2 | 72 | – | –
3 | HcAb-G7 (Fc fusion, VH-type heavy-chain antibody: VH fused to CH2 and CH3 of human IgG1, then a 6-histidine tag; made in HEK293; Detected in the assay through an anti-6HIS antibody labeled with d2; also called VH-HcAb G7; 6HIS-Fc-sdAb; not shown: CH2 and CH3 domains of a human IgG1) heavy (part 1 of 2): QVQLQESGGGLVQPGGSLRLSCAASGFTFSWYGMSWVRQAPGKGPEWVASISSRGITTDYAHSVKGRFTVSRDNTKNTLYLQMNSLKPEDTGVYYCTRVLWYDSGAYSLNDFWGQGTQVTVSSAAAEQKLISEEDLNGAAHHHHHHGS heavy (part 2 of 2): HHHHHH | – | – | – | Kd [4]: 5 nM
4 | VH F9 (VHH, labeled with the acceptor fluorescent probe d2 (site not stated), Made in E. coli; also called anti-Galphai VH antibody-d2) VHH: EVQLVESGGGLVQPGGSLRLSCAASGFTFDDYAMNWVRQAAGKGPEWVASISSRGITTDYAHSVKGRFTVSRDNTKNTLYLQMNSLKPDDAAVYYCATDPSTWYRGTAHWGQGTQVTVSS | – | – | 32 | –
5 | VH G6 (VHH, labeled with the acceptor fluorescent probe d2 (site not stated), Made in E. coli; also called anti-Galphai VH antibody-d2) VHH: EVQLVESGGDLVQPGGSLRLSCAASGFTFSTYRMNWVRQAPGKGLEWVASISSRGITTDYAHPVKGRFTVSRDNTKNTLYLQMNSLKPDDAAVYYCATDPSTWYRGTAHWGQGTQVTVSS | – | – | 95 | –
6 | VH F4 (VHH, labeled with the acceptor fluorescent probe d2 (site not stated), Made in E. coli; also called anti-Galphai VH antibody-d2) VHH: EVQLVESGGGLVQPGGSLRLSCAASGFTFSSYYMNWVRQAPGKGLEWVSSIYNGDGDTDYSDSVKGRFTISRDNAKNTVYLEMSDLKVQDTAIYYCNAYDGTLLRDYWGQGTQVTVSS | – | – | 31 | Kd [6]: 83 nM
7 | VH A10 (VHH, labeled with the acceptor fluorescent probe d2 (site not stated), Made in E. coli; also called anti-Galphai VH antibody-d2) VHH: EVQLVESGGGLVQPGGSLRLSCAASGLTYSDYAMSWVRQAAGKGPEWVASISSRGITTDYAHSVKGRFTVSRDNTKNTLYLQMNSLEPEDTAVYYCTTVSYWRYEYWGQGTQVTVSS | 1 | 15 | – | –
8 | VH G7 (VHH, labeled with the acceptor fluorescent probe d2 (site not stated), Made in E. coli; also called anti-Galphai VH antibody-d2) VHH: QVQLQESGGGLVQPGGSLRLSCAASGFTFSWYGMSWVRQAPGKGPEWVASISSRGITTDYAHSVKGRFTVSRDNTKNTLYLQMNSLKPEDTGVYYCTRVLWYDSGAYSLNDFWGQGTQVTVSS | 5 | 31 | – | –
9 | VH F2 (VHH, labeled with the acceptor fluorescent probe d2 (site not stated), Made in E. coli; also called anti-Galphai VH antibody-d2) VHH: EVQLVESGGGLVQPGGSLRLSCAASGFTFSSYAMSWVRQAAGKGPEWVASISSRGITTDYAHSVKGRFTVSRDNTKNTLYLQMNSLKPEDTALYYCVKGWMPTGWGQGTQVTVSS | 1 | 14 | – | –
10 | HcAb-B11 (Fc fusion, also called VH-HcAb B11; 6HIS-Fc-sdAb; not shown: CH2 and CH3 domains of a human IgG1) heavy (part 1 of 2): EVQLVESGGGLVQPGGSLRLSCAASGFTFNDYWMYWVRQAPGKGLEWVSSINTGGSSTYYSDSVKGRFTTARDNAKNSLYLQLNSLRPEDTAVYYCAKEGPVGPPDYWGQGTQVTVSSAAAEQKLISEEDLNGAAHHHHHHGS heavy (part 2 of 2): HHHHHH | – | – | – | Kd [1]: 1 nM
11 | VH B11 (VHH, labeled with the acceptor fluorescent probe d2 (site not stated), Made in E. coli; also called anti-Galphai VH antibody-d2) VHH: EVQLVESGGGLVQPGGSLRLSCAASGFTFNDYWMYWVRQAPGKGLEWVSSINTGGSSTYYSDSVKGRFTTARDNAKNSLYLQLNSLRPEDTAVYYCAKEGPVGPPDYWGQGTQVTVSS | – | – | 1 | Kd [6]: 17 nM
